From patent US20240390520A1, “GENE EDITING OF PCSK9 OR ANGPTL3 AND COMPOSITIONS AND METHODS OF USING SAME FOR TREATMENT OF DISEASE” (Verve Therapeutics, Inc., priority 2021, published 2024)

System: OT1 site
Test: Off-target OT1 editing, MessengerMax transfection in PHH, Targeted Amplicon sequencing
Type: cell-based, human
Conditions: PHH lot STL, MessengerMax with mRNA MA079, 5,000 and 2,500 ng/mL total RNA
Experimental: The genomic DNA from PHH cells transfected with one of 20 sgRDNA spacer sequence variants were also tested for off-target editing percentage by targeted amplicon sequencing (FIGS. 31-32). The genomic DNA samples assessed were from cells that received doses of the total RNA of 5,000 ng/mL and 2,500 ng/mL. OT1 primer (GA0100_OT_B2) was used to measure editing percentage (A>G) in position 1-10 of the OT1 site (Table. 4). Technical replicates were performed.
Table. […] VEP Gene and VEP Consequence refer to the genomic location and functional role of OT1 as determined by the Ensembl Variant Effect Predictor (VEP) tool v98.3. […] The CADD score was determined using the Combined Annotation-Dependent Depletion v1.6 (CADD) framework, which aims to annotate and interpret human genetic variation through the integration of diverse annotations into a single measure. […] To bioinformatically assess the potential for oncogenesis due to editing at the off-target site, it was assessed whether OT1 is located within a gene in the Cancer Gene Census of the Catalogue of Somatic Mutations in Cancer (COSMIC) v92; it is not. […]

B1: GA690: ANGPTL3 sgRDNA spacer sequence variant with minimally modified tracrRNA (nucleic acid)
guide: AAGATACCTGAATAACCCTCGTTTTAGAGCTAGAAATAGCAAGTTAAAATAAGGCTAGTCCGTTATCAACTTGAAAAAGTGGCACCGAGTCGGTGCTTTT
modifications: DNA-containing spacer with minimally modified tracrRNA, spacer pattern not given here
  off-target editing (A>G) at OT1, positions 1-10: indeed edited at OT1
